The record followed here is publication PMC6068105.

Assay [1] has as its target Human plasma fibronectin (human). Description: SPR; Biacore T100, 25 °C; fibronectin (10 μg/ml) directly immobilized on CM5 chip; CSGal-1 injected at 30 μl/min; 10 mM HEPES pH 7.4, 150 mM NaCl, 3 mM EDTA, 0.0005% TWEEN-20; steady-state model. Background: SPR reads the build-up and loss of mass on a sensor chip optically.
Assay [2] concerns the target recombinant mouse α5β1 integrin protein (mouse) (UniProt P11688). Description: SPR; Biacore T100, 25 °C; α5β1 integrin (1 μg/ml) captured by anti-α5 integrin antibody on CM5 chip; CSGal-1 injected at 30 μl/min; 10 mM HEPES pH 7.4, 150 mM NaCl, 3 mM EDTA, 0.0005% TWEEN-20; steady-state model.

Sequence of Human plasma fibronectin (human) (P02751 other isoform, or with tags, fused parts or gaps): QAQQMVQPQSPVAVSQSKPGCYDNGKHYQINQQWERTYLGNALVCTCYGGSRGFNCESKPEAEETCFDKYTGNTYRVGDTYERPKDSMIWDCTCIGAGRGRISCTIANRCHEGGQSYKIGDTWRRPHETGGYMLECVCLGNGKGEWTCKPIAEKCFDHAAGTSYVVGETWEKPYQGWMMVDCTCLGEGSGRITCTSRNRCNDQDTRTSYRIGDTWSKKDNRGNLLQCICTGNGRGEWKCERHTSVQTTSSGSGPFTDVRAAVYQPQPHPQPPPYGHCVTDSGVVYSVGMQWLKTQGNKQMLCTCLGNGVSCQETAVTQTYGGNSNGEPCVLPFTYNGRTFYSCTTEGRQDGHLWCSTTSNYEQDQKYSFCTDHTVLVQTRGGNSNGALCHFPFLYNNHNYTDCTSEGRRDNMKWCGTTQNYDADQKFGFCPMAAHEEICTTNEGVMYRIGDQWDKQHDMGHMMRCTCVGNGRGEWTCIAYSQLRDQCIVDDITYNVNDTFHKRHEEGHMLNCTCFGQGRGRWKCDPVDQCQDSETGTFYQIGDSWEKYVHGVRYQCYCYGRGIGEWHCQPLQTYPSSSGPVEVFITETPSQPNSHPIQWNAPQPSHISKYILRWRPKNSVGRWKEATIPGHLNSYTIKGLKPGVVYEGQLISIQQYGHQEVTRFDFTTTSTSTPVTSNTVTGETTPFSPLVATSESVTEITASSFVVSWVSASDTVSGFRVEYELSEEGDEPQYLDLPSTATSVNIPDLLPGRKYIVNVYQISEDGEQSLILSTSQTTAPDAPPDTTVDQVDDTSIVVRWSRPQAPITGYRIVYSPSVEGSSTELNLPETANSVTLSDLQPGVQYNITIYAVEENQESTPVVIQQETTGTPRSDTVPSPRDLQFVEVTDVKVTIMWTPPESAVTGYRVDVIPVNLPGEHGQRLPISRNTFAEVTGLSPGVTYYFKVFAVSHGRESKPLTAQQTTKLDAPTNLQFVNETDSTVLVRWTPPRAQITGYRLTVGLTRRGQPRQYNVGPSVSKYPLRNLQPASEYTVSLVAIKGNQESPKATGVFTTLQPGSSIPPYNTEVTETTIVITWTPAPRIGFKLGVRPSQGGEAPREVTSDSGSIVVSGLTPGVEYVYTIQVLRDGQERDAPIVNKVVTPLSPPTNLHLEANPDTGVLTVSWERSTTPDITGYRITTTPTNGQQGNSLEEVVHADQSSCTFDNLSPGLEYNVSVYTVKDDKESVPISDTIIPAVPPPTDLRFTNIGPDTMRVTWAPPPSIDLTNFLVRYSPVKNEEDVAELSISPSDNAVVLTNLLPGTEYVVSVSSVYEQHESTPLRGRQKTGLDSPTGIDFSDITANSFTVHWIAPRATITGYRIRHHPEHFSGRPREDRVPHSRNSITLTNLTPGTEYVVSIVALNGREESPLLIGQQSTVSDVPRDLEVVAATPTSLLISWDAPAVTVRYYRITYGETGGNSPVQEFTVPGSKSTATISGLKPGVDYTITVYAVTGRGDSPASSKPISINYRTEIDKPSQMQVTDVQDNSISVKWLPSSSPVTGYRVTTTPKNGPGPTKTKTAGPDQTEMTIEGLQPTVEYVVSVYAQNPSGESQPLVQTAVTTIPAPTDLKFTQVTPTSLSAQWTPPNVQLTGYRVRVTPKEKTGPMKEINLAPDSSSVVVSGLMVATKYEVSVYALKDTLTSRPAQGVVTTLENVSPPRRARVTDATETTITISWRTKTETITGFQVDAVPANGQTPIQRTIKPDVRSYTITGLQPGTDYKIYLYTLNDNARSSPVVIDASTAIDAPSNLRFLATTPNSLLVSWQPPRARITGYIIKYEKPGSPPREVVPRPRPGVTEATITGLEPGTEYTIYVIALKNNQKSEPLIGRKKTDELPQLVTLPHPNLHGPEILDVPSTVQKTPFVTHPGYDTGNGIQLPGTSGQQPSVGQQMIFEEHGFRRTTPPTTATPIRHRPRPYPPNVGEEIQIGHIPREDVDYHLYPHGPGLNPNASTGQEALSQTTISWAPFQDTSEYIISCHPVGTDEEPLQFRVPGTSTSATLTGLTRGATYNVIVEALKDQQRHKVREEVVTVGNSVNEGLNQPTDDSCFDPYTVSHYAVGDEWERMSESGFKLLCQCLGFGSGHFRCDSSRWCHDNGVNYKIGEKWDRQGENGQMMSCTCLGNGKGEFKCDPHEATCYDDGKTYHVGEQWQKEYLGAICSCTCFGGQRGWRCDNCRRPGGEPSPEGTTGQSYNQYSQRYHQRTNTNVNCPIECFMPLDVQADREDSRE

Take “CSGal-1, cysteine-less mutant of human galectin-1, tag-free recombinant protein (from UniProt P09382 1-135) (natural protein)”: the results for the Kd in assay [1] and in assay [2] were 12.4 µM and 0.852 µM, respectively.
